These results are taken from patent US20250154198A1, “PEPTIDE INHIBITORS OF INTERLEUKIN-23 RECEPTOR” (Zealand Pharma A/S, priority 2021, published 2025).

This experiment concerns the target T1, human IL-23R endogenously expressed on DB cells (CRL-2289) (human, UniProt Q5VWK5 24-629).
T1 sequence (looked up): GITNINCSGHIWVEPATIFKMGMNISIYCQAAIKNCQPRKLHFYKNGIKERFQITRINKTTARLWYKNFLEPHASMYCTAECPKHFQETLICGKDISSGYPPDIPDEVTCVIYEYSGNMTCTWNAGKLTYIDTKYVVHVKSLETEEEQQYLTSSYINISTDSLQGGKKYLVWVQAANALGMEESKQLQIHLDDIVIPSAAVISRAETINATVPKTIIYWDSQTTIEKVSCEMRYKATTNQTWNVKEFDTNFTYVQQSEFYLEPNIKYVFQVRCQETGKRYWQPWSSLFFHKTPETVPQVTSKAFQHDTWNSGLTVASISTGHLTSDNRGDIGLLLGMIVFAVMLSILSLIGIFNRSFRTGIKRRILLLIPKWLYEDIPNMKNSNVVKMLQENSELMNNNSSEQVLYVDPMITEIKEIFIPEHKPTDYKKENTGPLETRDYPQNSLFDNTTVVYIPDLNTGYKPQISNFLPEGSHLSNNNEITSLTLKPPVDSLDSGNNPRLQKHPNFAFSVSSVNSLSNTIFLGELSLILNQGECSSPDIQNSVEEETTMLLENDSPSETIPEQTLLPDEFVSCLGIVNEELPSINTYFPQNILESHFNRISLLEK
In words: cell-based or functional assay.

*1 amine or outer side, *2 acyl side, *3 side chain or, on linkers, in order; H or OH if unused. Bridges are numbered along the chain shown (N, C = ends). Primed or numbered codes have the meaning given here. Where no end group is shown, it is not given here. [ ]: non-standard residue; d: D form. 4‑Aminomethyl‑phenylacetyl = 4-aminomethyl-phenylacetyl unit, its amine closes the lactam, O=C(Cc1ccc(CN[*:1])cc1)[*:2]; Q(pyrrolidin)″ = (2S)-2-amino-5-oxo-5-pyrrolidin-1-yl-pentanoic acid, O=C(CC[C@H](N[*:1])C(=O)[*:2])N1CCCC1; 1,3‑dibromopropan‑2‑one(3) = linker giving 1,3-dithio-propan-2-one bridge -SCH2C(=O)CH2S- between Cys; 4‑Aminomethyl‑phenylacetyl″ = N-terminal cap residue, O=C(Cc1ccc(CN[*:1])cc1)[*:2]; Ala(quinolin-3-yl) = N[C@@H](Cc1cnc2ccccc2c1)C(=O)O; Trp(4-F) = N[C@@H](Cc1c[nH]c2cccc(F)c12)C(=O)O; Trp(7-F) = N[C@@H](Cc1c[nH]c2c(F)cccc12)C(=O)O; Phe(3,4-Me2) = Cc1ccc(C[C@H](N)C(=O)O)cc1C; 2Nal = N[C@@H](Cc1ccc2ccccc2c1)C(=O)O; AEF = NCCOc1ccc(C[C@H](N)C(=O)O)cc1; 3Pal = N[C@@H](Cc1cccnc1)C(=O)O; d3Pal = N[C@H](Cc1cccnc1)C(=O)O; αMeL = CC(C)C[C@](C)(N)C(=O)O; αMeV = CC(C)[C@](C)(N)C(=O)O; 3Amb = NCc1cccc(C(=O)O)c1; Dab = NCC[C@H](N)C(=O)O A value given as a limit tells only on which side of the number the result lay.

On to [4‑Aminomethyl‑phenylacetyl″]SCWQC[AEF][2Nal][αMeL]ER[3Pal]-NH2 (lactam N-10; linker 3-6 via 1,3‑dibromopropan‑2‑one(3)) [Compound 147], for which the “IC50 (pSTAT3)” value was found to be 85.8 pM.

B1: Compound 148 (peptide)
peptide: [3Amb]SCWQC[AEF][2Nal][αMeL]E[Dab][3Pal]-NH2
modifications: lactam (positions not given here); linker 3-6 via 1,3‑dibromopropan‑2‑one(3); not fully specified (bridges); printed as [(3-Aminomethyl)benzoyl](1c)*SC(2a)WQC(2a)[Y(2-aminoethoxy)][2-Nal][2-Me-Leu]E(1c)[Dab][3-(3-Pyridyl)-Ala]-[NH2]
As for B1, the “IC50 (pSTAT3)” value is 86.8 pM.

B2: Compound 158 (peptide)
peptide: [4‑Aminomethyl‑phenylacetyl]IEWQ[Dab][AEF][Phe(3,4-Me2)][αMeV]EG[3Pal]-NH2
modifications: lactam (positions not given here); lactam 3-6; not fully specified (bridges); printed as [4-Aminomethyl-phenylacetyl](1c)*IE(2c)WQ[Dab](2c)[Y(2-aminoethoxy)][F(3,4-Me)][2-Me-Val]E(1c)G[3-(3-Pyridyl)-Ala]-[NH2]
As for B2, the “IC50 (pSTAT3)” value came to 0.635 nM.

B3: Compound 157 (peptide)
peptide: [4‑Aminomethyl‑phenylacetyl]IEWQ[Dab][AEF][2Nal][αMeV]E[Dab][3Pal]-NH2
modifications: lactam (positions not given here); lactam 3-6; not fully specified (bridges); printed as [4-Aminomethyl-phenylacetyl](1c)*IE(2c)WQ[Dab](2c)[Y(2-aminoethoxy)][2-Nal][2-Me-Val]E(1c)[Dab][3-(3-Pyridyl)-Ala]-[NH2]
In the case of B3, the “IC50 (pSTAT3)” value turned out to be 31.8 pM.

B4: Compound 139 (peptide)
peptide: [4‑Aminomethyl‑phenylacetyl]SE[Trp(7-F)]Q[Dab][AEF][2Nal][αMeL]E[Dab]-NH2
modifications: lactam N-10, 3-6
SMILES: CC(C)C[C@]1(C)NC(=O)[C@H](Cc2ccc3ccccc3c2)NC(=O)[C@H](Cc2ccc(OCCN)cc2)NC(=O)[C@@H]2CCNC(=O)CC[C@H](NC(=O)[C@H](CO)NC(=O)Cc3ccc(cc3)CNC(=O)CC[C@@H](C(=O)N[C@@H](CCN)C(N)=O)NC1=O)C(=O)N[C@@H](Cc1c[nH]c3c(F)cccc13)C(=O)N[C@@H](CCC(N)=O)C(=O)N2
On to B4, for which the “IC50 (pSTAT3)” value was 30.2 nM.

B5: Compound 149 (peptide)
peptide: [3Amb]SCWQC[AEF][2Nal][αMeL]ER[Ala(quinolin-3-yl)]-NH2
modifications: lactam (positions not given here); linker 3-6 via 1,3‑dibromopropan‑2‑one(3); not fully specified (bridges); printed as [(3-Aminomethyl)benzoyl](1c)*SC(2a)WQC(2a)][Y(2-aminoethoxy)][2-Nal][2-Me-Leu]E(1c)R[3-(3-Quinolinyl)-Ala]-[NH2]
Consider B5, for which the “IC50 (pSTAT3)” value was 4.82 nM.
Then [3Amb]IEWQ[Dab][AEF][2Nal][αMeV]E[Dab][3Pal]-NH2 (lactam (positions not given here); lactam 3-6; not fully specified (bridges)) [Compound 156], with 85.7 pM.

B6: Compound 151 (peptide)
peptide: [3Amb]SCWQC[AEF][2Nal][αMeL]ER[3‑Amino‑3‑(3'-pyridyl)propionyl]-NH2
modifications: lactam (positions not given here); linker 3-6 via 1,3‑dibromopropan‑2‑one(3); not fully specified (bridges); printed as [(3-Aminomethyl)benzoyl](1c)*SC(2a)WQC(2a)][Y(2-aminoethoxy)][2-Nal][2-Me-Leu]E(1c)R[3-Amino-3-(3′-pyridyl)propionyl]-[NH2]
Consider B6, for which the “IC50 (pSTAT3)” value was determined as 10.7 nM.

B7: Compound 150 (peptide)
peptide: [3Amb]SCWQC[AEF][2Nal][αMeL]ER[d3Pal]-NH2
modifications: lactam (positions not given here); linker 3-6 via 1,3‑dibromopropan‑2‑one(3); not fully specified (bridges); printed as [(3-Aminomethyl)benzoyl](1c)*SC(2a)WQC(2a)][Y(2-aminoethoxy)][2-Nal][2-Me-Leu]E(1c)R[{d}[3-(3-Pyridyl)-Ala]]-[NH2]
Regarding B7, the “IC50 (pSTAT3)” value was found to be 14.3 nM.

B8: Compound 146 (peptide)
peptide: [4‑Aminomethyl‑phenylacetyl]SEW[Q(pyrrolidin)″][Dab][AEF][2Nal][αMeL]E[Dab]-NH2
modifications: lactam N-10, 3-6
SMILES: CC(C)C[C@]1(C)NC(=O)[C@H](Cc2ccc3ccccc3c2)NC(=O)[C@H](Cc2ccc(OCCN)cc2)NC(=O)[C@@H]2CCNC(=O)CC[C@H](NC(=O)[C@H](CO)NC(=O)Cc3ccc(cc3)CNC(=O)CC[C@@H](C(=O)N[C@@H](CCN)C(N)=O)NC1=O)C(=O)N[C@@H](Cc1c[nH]c3ccccc13)C(=O)N[C@@H](CCC(=O)N1CCCC1)C(=O)N2
B8: the “IC50 (pSTAT3)” value stood at 41.5 nM.

B9: Compound 138 (peptide)
peptide: [4‑Aminomethyl‑phenylacetyl]SE[Trp(4-F)]Q[Dab][AEF][2Nal][αMeL]E[Dab]-NH2
modifications: lactam N-10, 3-6
SMILES: CC(C)C[C@]1(C)NC(=O)[C@H](Cc2ccc3ccccc3c2)NC(=O)[C@H](Cc2ccc(OCCN)cc2)NC(=O)[C@@H]2CCNC(=O)CC[C@H](NC(=O)[C@H](CO)NC(=O)Cc3ccc(cc3)CNC(=O)CC[C@@H](C(=O)N[C@@H](CCN)C(N)=O)NC1=O)C(=O)N[C@@H](Cc1c[nH]c3cccc(F)c13)C(=O)N[C@@H](CCC(N)=O)C(=O)N2
Turning to B9, the “IC50 (pSTAT3)” value came to 39.4 nM.

B10: Compound 145 (peptide)
peptide: [4‑Aminomethyl‑phenylacetyl][Q(pyrrolidin)″]EWQ[Dab][AEF][2Nal][αMeL]E[Dab]-NH2
modifications: lactam N-10, 3-6
SMILES: CC(C)C[C@]1(C)NC(=O)[C@H](Cc2ccc3ccccc3c2)NC(=O)[C@H](Cc2ccc(OCCN)cc2)NC(=O)[C@@H]2CCNC(=O)CC[C@H](NC(=O)[C@H](CCC(=O)N3CCCC3)NC(=O)Cc3ccc(cc3)CNC(=O)CC[C@@H](C(=O)N[C@@H](CCN)C(N)=O)NC1=O)C(=O)N[C@@H](Cc1c[nH]c3ccccc13)C(=O)N[C@@H](CCC(N)=O)C(=O)N2
For the molecule B10, the “IC50 (pSTAT3)” value was 22.7 nM.

B11: Compound 9 (peptide)
peptide: DESCWQCWWLXR
HELM: PEPTIDE1{D.E.S.C.W.Q.C.W.W.L.[Dab].R.[am]}|CHEM1{[O=C(C[*:1])C[*:2]]}$PEPTIDE1,PEPTIDE1,2:R3-11:R3|PEPTIDE1,CHEM1,4:R3-1:R1|PEPTIDE1,CHEM1,7:R3-1:R2$$$V2.0
SMILES: CC(C)C[C@@H]1NC(=O)[C@H](Cc2c[nH]c3ccccc23)NC(=O)[C@H](Cc2c[nH]c3ccccc23)NC(=O)[C@@H]2CSCC(=O)CSC[C@H](NC(=O)[C@H](CO)NC(=O)[C@@H](NC(=O)[C@@H](N)CC(=O)O)CCC(=O)NCC[C@@H](C(=O)N[C@@H](CCCNC(=N)N)C(N)=O)NC1=O)C(=O)N[C@@H](Cc1c[nH]c3ccccc13)C(=O)N[C@@H](CCC(N)=O)C(=O)N2
Turning to B11, the “IC50 (pSTAT3)” value is above 1 µM.
